Assay results as given in article PMC7318607.

B1: G2 probe (8-oxoG) (dsDNA)
DNA 1: CGATGTCTGGAAAAGCCCGGGGACCAGGGAA
DNA 2: TTCCCTGGTCCCCGGGCTTTTCCAGACATCG
modifications: 8-oxoG at position 27 of strand 1 (antisense)
B2: Cy5 probe (8-oxoG) (dsDNA)
DNA 1: AGAGAAGAAGAAGAAGAGATGGGTTATTCGAACTAGC
DNA 2: GCTAGTTCGAATAACCCATCTCTTCTTCTTCTTCTCT
modifications: 8-oxoG at position 16 of strand 1

Molecular target: GST-OGG1 wt (UniProt O15527 1-345)
Assay: EMSA

GST-OGG1 wt, sequence (O15527 whole entry): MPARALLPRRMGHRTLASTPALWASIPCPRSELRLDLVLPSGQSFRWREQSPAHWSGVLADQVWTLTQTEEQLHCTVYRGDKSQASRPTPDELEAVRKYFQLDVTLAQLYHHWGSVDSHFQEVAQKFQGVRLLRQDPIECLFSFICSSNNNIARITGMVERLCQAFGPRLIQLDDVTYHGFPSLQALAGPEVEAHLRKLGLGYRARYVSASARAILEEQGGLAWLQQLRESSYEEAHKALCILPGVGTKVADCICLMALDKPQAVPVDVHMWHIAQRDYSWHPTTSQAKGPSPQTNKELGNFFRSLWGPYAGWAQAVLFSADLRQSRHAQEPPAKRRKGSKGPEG

Row | Binder | binding result
1 | B1 | binds
2 | B2 | binds
